Reference: the supplement of paper PMC9233669
Variants at the floor of the assay were thinned out.

How the values were obtained:
biotinyl-Leu-oxazolone = test: self-aminoacylation, catalytic enhancement (BLO) (fold over background); higher = more active; k-Seq, kA / k0A0; sequences stand for … in GGGAAUGGAUCCACAUCUACGAAUUC…UUCACUGCAGACUUGACGAAGCUG
Summary of the method: (§1)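 Catalytic enhancement equals the median kA over the uncatalyzed rate, the latter read from the low-activity peak of a bimodal Gaussian fit. Values of kA came from fitting each sequence's fraction reacted to a pseudo-first-order model, with 1000 bootstraps. Reacted RNA was captured with streptavidin and quantified by triplicate qPCR and Illumina sequencing after 90 minutes at room temperature with 2–1250 μM biotinyl-aminoacyl-oxazolone and 0.43 μM mutagenized RNA pools bearing a 21-nt variable region.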

biotinyl-Trp-oxazolone = test: self-aminoacylation, catalytic enhancement (BWO) (fold over background); higher = more active; k-Seq, kA / k0A0; sequences stand for … in GGGAAUGGAUCCACAUCUACGAAUUC…UUCACUGCAGACUUGACGAAGCUG
Summary of the method: as §1

biotinyl-Val-oxazolone = test: self-aminoacylation, catalytic enhancement (BVO) (fold over background); higher = more active; k-Seq, kA / k0A0; sequences stand for … in GGGAAUGGAUCCACAUCUACGAAUUC…UUCACUGCAGACUUGACGAAGCUG
Summary of the method: as §1

biotinyl-Met-oxazolone = test: self-aminoacylation, catalytic enhancement (BMO) (fold over background); higher = more active; k-Seq, kA / k0A0; sequences stand for … in GGGAAUGGAUCCACAUCUACGAAUUC…UUCACUGCAGACUUGACGAAGCUG
Summary of the method: as §1

biotinyl-Ile-oxazolone = test: self-aminoacylation, catalytic enhancement (BIO) (fold over background); higher = more active; k-Seq, kA / k0A0; sequences stand for … in GGGAAUGGAUCCACAUCUACGAAUUC…UUCACUGCAGACUUGACGAAGCUG
Summary of the method: as §1

biotinyl-Phe-oxazolone = test: self-aminoacylation, catalytic enhancement (BFO) (fold over background); higher = more active; k-Seq, kA / k0A0; sequences stand for … in GGGAAUGGAUCCACAUCUACGAAUUC…UUCACUGCAGACUUGACGAAGCUG
Summary of the method: as §1

Sequence | self-aminoacylation (biotinyl-Leu-oxazolone) | self-aminoacylation (biotinyl-Trp-oxazolone) | self-aminoacylation (biotinyl-Val-oxazolone) | self-aminoacylation (biotinyl-Met-oxazolone) | self-aminoacylation (biotinyl-Ile-oxazolone) | self-aminoacylation (biotinyl-Phe-oxazolone)
CUACUUCAAUCAAUCUGUCUG [Fam1A.1 aminoacylation ribozyme variant] | 0.57 | 0.721 | 0.597 | 0.539 | 0.599 | 1.25
CUACUUCAAUCAAUGGGUCUG [Fam1A.1 aminoacylation ribozyme variant] | 0.912 | 0.627 | 0.809 | 0.801 | 0.889 | 0.579
CUACUUCAAUCGAUCGGUCUG [Fam1A.1 aminoacylation ribozyme variant] | 0.634 | 0.977 | 0.754 | 0.707 | 0.687 | 0.776
CUACUUCACACAAGCGGUCUG [Fam1A.1 aminoacylation ribozyme variant] | 0.817 | 1.01 | 0.993 | 0.816 | 1.03 | 0.75
CUACUUCACACAAUCGGUCUU [Fam1A.1 aminoacylation ribozyme variant] | 0.856 | 0.713 | 0.85 | 0.639 | 0.963 | 0.701
CUACUUCACACAAUCUGUCUG [Fam1A.1 aminoacylation ribozyme variant] | 0.573 | 0.513 | 0.699 | 0.558 | 0.655 | 0.903
CUACUUCACACGAUCGGUCUG [Fam1A.1 aminoacylation ribozyme variant] | 0.853 | 0.654 | 0.777 | 0.97 | 0.913 | 0.678
CUACUUCAGACAAACGGUCUG [Fam1A.1 aminoacylation ribozyme variant] | 0.908 | 0.573 | 0.863 | 0.962 | 0.89 | 0.868
CUACUUCAGAUAAUCGGUCUG [Fam1A.1 aminoacylation ribozyme variant] | 0.675 | 0.432 | 0.686 | 0.648 | 0.643 | 0.629
CUACUUCAGGCAAUCGGUCUG [Fam1A.1 aminoacylation ribozyme variant] | 1.42 | 1.27 | 1.24 | 0.853 | 0.94 | 1.02
CUACUUCAGUCAAUCGGUCUG [Fam1A.1 aminoacylation ribozyme variant] | 0.667 | 0.463 | 0.807 | 0.848 | 0.565 | 0.793
CUACUUCAUACAAUCGGGCUG [Fam1A.1 aminoacylation ribozyme variant] | 0.877 | 0.764 | 0.994 | 0.744 | 1.11 | 0.688
CUACUUCAUACAAUCGGUCAG [Fam1A.1 aminoacylation ribozyme variant] | 0.662 | 0.721 | 0.699 | 0.644 | 0.738 | 0.985
CUACUUCAUACAAUCGGUCCG [Fam1A.1 aminoacylation ribozyme variant] | 0.669 | 0.49 | 0.653 | 0.76 | 0.675 | 0.5
CUACUUCAUACAAUCGGUGUG [Fam1A.1 aminoacylation ribozyme variant] | 1.14 | 0.545 | 0.956 | 0.959 | 0.839 | 0.976
CUACUUCAUACAAUCGGUUUG [Fam1A.1 aminoacylation ribozyme variant] | 0.602 | 0.425 | 0.541 | 0.538 | 0.64 | 0.619
CUACUUCAUACAAUGGGUCUG [Fam1A.1 aminoacylation ribozyme variant] | 0.803 | 0.764 | 0.757 | 0.755 | 0.805 | 0.65
CUACUUCCAACAAUAGGUCUG [Fam1A.1 aminoacylation ribozyme variant] | 0.578 | 0.417 | 0.688 | 0.562 | 0.744 | 0.659
CUACUUCCAACAAUCGGUCAG [Fam1A.1 aminoacylation ribozyme variant] | 0.663 | 0.518 | 0.774 | 0.62 | 0.795 | 1.04
CUACUUCGAACAAACGGUCUG [Fam1A.1 aminoacylation ribozyme variant] | 0.535 | 0.619 | 0.805 | 0.664 | 0.709 | 0.51
CUACUUCGAACAAGCGGUCUG [Fam1A.1 aminoacylation ribozyme variant] | 0.9 | 0.528 | 0.64 | 0.624 | 0.727 | 0.721
CUACUUCGAACAAUCGGGCUG [Fam1A.1 aminoacylation ribozyme variant] | 1.24 | 1.57 | 1.54 | 1.02 | 1.3 | 0.645
CUACUUCGAACGAUCGGUCUG [Fam1A.1 aminoacylation ribozyme variant] | 1.06 | 0.707 | 1.04 | 0.779 | 0.846 | 0.279
